In patent US20200399386A1 (CELGENE, published 2020):

How the values were obtained:
human BCMA [1] = target: T1, human BCMA (human, UniProt Q02223 1-184); assay: flow cytometry on C6 cells expressing human BCMA
T1 construct: whole, on cells; Transfected (C6-BCMA) and endogenous (myeloma lines) forms are treated as the same protein on cells; also called B-cell maturation antigen; TNFRSF17
T1 sequence (looked up): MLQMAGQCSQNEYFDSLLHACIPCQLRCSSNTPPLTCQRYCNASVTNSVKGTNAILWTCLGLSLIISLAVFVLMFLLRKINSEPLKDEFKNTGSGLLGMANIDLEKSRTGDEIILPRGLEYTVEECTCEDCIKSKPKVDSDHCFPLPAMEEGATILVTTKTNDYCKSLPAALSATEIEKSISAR
From the text: (§1) FACS Analysis: FACs antibodies used in this study include: 1) LS-C106982-100 Mouse Monoclonal to Human TNFRSF12A-R-Phycoerythrin (PE) (LifeSpan BioSciences, Inc.); 2) EM901 has been previously characterized as a BCMA-binding antibody (Mab42; International Application Number WO2017/021450); 3) Ebiosciences anti-human IgG Fey-specific, labeled with PE; 4) Human IgG isotype control; 5) Anti-TACI antibody [1A1](Abcam); 6) BAFF Receptor antibody 8A7 (ThermoFisher); 7) BCMA antibody 19F2 (BioLegend). Each cell type (75,000 cells/well) was incubated with primary antibodies in FACs buffer (PBS containing 0.2% BSA) for 25 min in a 96 well plate. Cells were washed once with FACs buffer and incubated with 1:100 dilution secondary antibody for 25 min. After washing once, cells were fixed for 10 min with 1% paraformaldehyde, washed with FACs buffer and resuspended in 100 μL FACs buffer. Labeled cells were analyzed using an Attune NxT Flow Cytometer and data processed using FlowJo 10.0.8r1 (FLOWJO LLC), according to the manufacturer's instructions.
(§2) The reactivity of each antibody was monitored by FACs. […] Geometric mean values quantifying these binding interactions are included (FIG. 2).

human TNFRSF12A = target: T2, human TNFRSF12A (human, UniProt Q9NP84 28-129); assay: flow cytometry on Hek293 cells stably transfected with human TNFRSF12A
T2 construct: whole, on cells; also called TWEAKR
T2 sequence (looked up): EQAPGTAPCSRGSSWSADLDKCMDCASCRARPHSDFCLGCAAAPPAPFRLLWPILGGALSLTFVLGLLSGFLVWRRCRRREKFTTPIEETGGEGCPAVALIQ
From the text: as §1
The reactivity of each antibody was monitored by FACs. An anti-TNFRSF12A antibody stained Hek293-TNFRSF12A cells, indicative of TNFRSF12A expression. […] Geometric means quantifying these binding interactions are shown (FIG. 3).

BAFF receptor = target: T3, BAFF receptor (UniProt Q96RJ3 1-184, limits assumed); assay: flow cytometry, dose response on NUDHL1 cells
T3 construct: whole, on cells
T3 sequence (looked up): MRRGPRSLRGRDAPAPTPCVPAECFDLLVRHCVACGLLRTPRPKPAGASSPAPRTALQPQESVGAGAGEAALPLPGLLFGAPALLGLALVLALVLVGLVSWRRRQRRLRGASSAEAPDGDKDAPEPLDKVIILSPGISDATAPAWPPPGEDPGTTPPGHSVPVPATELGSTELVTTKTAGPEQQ
From the text: as §1
(§3) The reactivity of each mAb was monitored by FACs. […] Geometric means quantifying these binding interactions are shown (FIG. 5).

TACI = target: T4, TACI (UniProt O14836 1-293, limits assumed); assay: flow cytometry, dose response on NUDHL1 cells
T4 construct: whole, on cells
T4 sequence (looked up): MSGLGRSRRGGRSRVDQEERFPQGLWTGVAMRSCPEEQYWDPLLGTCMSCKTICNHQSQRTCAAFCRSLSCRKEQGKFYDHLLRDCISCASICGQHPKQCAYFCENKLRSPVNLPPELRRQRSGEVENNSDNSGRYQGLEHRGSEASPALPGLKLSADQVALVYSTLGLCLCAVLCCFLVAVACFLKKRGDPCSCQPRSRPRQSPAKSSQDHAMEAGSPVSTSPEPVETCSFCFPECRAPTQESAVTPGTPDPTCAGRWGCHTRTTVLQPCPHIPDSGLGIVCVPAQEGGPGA
From the text: as §1, §3

human BCMA [2] = target: T1, human BCMA; assay: flow cytometry on NCIH929 cells
From the text: as §1
The reactivity of each mAb was monitored by FACs. The EM901 antibody, that recognizes BCMA, robustly bound NCIH929 cells. […] Geometric means quantifying these binding interactions are shown (FIG. 4).

human BCMA [3] = target: T1, human BCMA; assay: flow cytometry on C6 cells stably transfected with human BCMA, 0.4 ug/ml antibody
From the text: as §1, §2

B1: 320262 (antibody, IgG1, V domains shown)
VH: QLQLQESGPGLVKPSETLSLTCTVSGGSISNSNYYWGWIRQPPGKGLEWIGNIYYSGRTYYTPSLKSRVTISEDTSKNQFSLKVRSVTVADTGVYYCARPDYYGSGTIAWGQGTLVTVSS
VL: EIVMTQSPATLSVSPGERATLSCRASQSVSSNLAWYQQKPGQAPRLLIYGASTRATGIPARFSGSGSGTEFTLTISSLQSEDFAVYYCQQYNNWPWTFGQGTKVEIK
Question: Does B1 bind (human BCMA [1])?
Answer: binds

Question: Does B1 bind (human TNFRSF12A)?
Answer: no binding (tested: 0.4 ug/ml)

Question: Does B1 bind (BAFF receptor)?
Answer: no binding

Question: Does B1 bind (TACI)?
Answer: no binding

B2: 320111 (antibody, IgG1, V domains shown)
VH: QLPLQESGPGLVKPSETLSLTCTVSGGSIRSSSYYWGWIRQPPGKGLEWIGTIYYSGSTYYNPSLKSRVTISVDTSKNQLSLKLSSVTAADTAVYYCARPYYDSSGYYYYWGQGTLVTVSS
VL: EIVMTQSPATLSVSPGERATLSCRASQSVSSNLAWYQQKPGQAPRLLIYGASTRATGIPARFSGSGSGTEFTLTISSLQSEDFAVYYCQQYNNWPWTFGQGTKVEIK
Question: What does the source list for B2?
Answer: binding result (human TNFRSF12A): no binding (tested: 0.4 ug/ml); binding result (BAFF receptor): no binding; binding result (TACI): no binding; binding result (human BCMA [2]): binds

B3: 319966 (antibody, IgG1, V domains shown)
VH: QLQLQESGPGLVKPSETLSLTCTVSGSSISRSNYYWGWIRQPPGKGLEWIGTFYYSGTTYYNPSLKSRVTISEDTSKKQLSLNLRSVTAADTAVYYCARPSGYTTSWGQGTLVTVSS
VL: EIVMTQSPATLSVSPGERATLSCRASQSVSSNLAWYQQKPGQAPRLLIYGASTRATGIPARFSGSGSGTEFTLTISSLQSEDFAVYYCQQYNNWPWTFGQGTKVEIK
notes: also called human IgG antibody 319966
Question: Which results are given for B3?
Answer: binding result (human TNFRSF12A): no binding (tested: 0.4 ug/ml); binding result (human BCMA [2]): binds

B4: 319883 (antibody, IgG1, V domains shown)
VH: QLQLQESGPGLVKPSDTLSLTCTVSGGSISSSNSYWGWIRQSPGRGLEWIGRIYYSGITHYNPSLKSRVTISVDTSKNQFSLKLSSVTAADTAVYYCASPYKWNDGNFFGWGQGTLVTVSS
VL: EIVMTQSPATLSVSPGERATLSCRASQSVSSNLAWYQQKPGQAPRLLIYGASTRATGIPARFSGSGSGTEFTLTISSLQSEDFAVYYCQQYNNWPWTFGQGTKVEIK
Question: What does the source list for B4?
Answer: binding result (human TNFRSF12A): no binding (tested: 0.4 ug/ml); binding result (human BCMA [3]): binds

B5: 320199 (antibody, IgG1, V domains shown)
VH: QLQLQESGPGLVKPSETLSLTCTVSGGSISSSNSYWGWIRQSPGRGLEWIGRIYYSGITHYNPSLKSRVTISVDTSKNQFSLKLSSVTAADTAVYYCASPYKWNDGNFFGWGQGTLVTVSS
VL: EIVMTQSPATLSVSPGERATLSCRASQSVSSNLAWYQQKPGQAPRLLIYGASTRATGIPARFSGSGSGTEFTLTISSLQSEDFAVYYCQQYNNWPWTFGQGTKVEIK
notes: also called human IgG antibody 320199
Question: Which results are given for B5?
Answer: binding result (human TNFRSF12A): no binding (tested: 0.4 ug/ml); binding result (human BCMA [3]): binds
